Laboratory results published in patent US20240067748A1.
pEC50: −log10 of the molar value.

Experiments:
[1] = biological target: human Trop2 on cells (human) (UniProt P09758); assay: flow cytometry on BxPC-3 tumor cells; negative control
[2] = biological target: monkey Trop2 on CHO-K1 cells (monkey); assay: flow cytometry on CHO-K1/monkey Trop2 cells; negative control
[3] = biological target: monkey Trop2 on CHO-K1 cells (monkey); assay: flow cytometry on CHO-K1/monkey Trop2 cells (second run); negative control
[4] = biological target: human Trop2 on cells (human) (UniProt P09758); assay: flow cytometry on BxPC-3 tumor cells (second panel of the table); negative control

Sequence of monkey Trop2 on CHO-K1 cells (monkey) (A0A2K5 entry or part of it limits assumed): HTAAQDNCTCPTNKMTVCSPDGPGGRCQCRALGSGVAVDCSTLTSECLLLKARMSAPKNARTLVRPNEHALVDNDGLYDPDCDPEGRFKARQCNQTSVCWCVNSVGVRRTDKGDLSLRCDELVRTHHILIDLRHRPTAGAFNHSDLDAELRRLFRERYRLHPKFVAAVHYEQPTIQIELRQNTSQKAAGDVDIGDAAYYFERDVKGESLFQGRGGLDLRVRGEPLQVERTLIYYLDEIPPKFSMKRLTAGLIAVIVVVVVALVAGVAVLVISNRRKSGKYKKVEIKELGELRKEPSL
Sequence of human Trop2 on cells (human) (P09758 27-323): as the sequence (A0A2K5 entry or part of it limits assumed) above, with V36M, E46K, N67S, V204I, V266M, S272T counted along it

Maximum MFI value [1]: 77 MFI
pEC50 [2]: 5.72
Maximum MFI value [2]: 277 MFI
Maximum MFI value [3]: 109 MFI
Maximum MFI value [4]: 670 MFI
Substance: hIgG1 (antibody)
